This assay has as its target T1, human HER2 protein present in serum samples (human, UniProt P04626 23-652).
T1 construct: extracellular domain; Endogenous analyte in human sera; also called sHER2; serum HER2
The experiment in a line: sandwich ELISA, 1B7 capture/1G5-biotin detection.

Results on 1 molecule are retold here after patent US20240210403A1 (MARTELL DIAGNOSTIC LABORATORIES, published 2024).

Experimental: Standards, controls and samples were pipetted into the wells, and any HER2 present was bound by the immobilized antibody. […] Following a wash to remove unbound conjugate, a substrate solution was added to the wells, and color developed in proportion to the amount of HER2 bound. After color development was stopped, the absorbance was measured using a microplate spectrophotometer.
Sample Buffer/Antibody Diluent (10% Casein in 1×PBS) was prepared (˜40 mL/plate). After incubation, plates were washed on a plate washer as described herein. 245 μL of Sample Buffer then was pipetted into a labeled snap-cap tube for each patient sample to be tested, as well as for each standard and control. A 1:50 dilution of each patient sample as well as each standard and control was generated (e.g., 5 μL of each sample in 95 μL of Sample Buffer). 100 μL of each sample (patient, standard, control, and blank (i.e., 100 μL of Sample Buffer)) was pipetted into their respective wells as indicated on the plate map. The wells were covered with an adhesive plate cover, placed in a microplate shaker (Corning LSE Digital Microplate Shaker) at 500 rpms for 1 min, and then incubated at room temperature for 1 hour.
After incubation, plates were washed on a plate washer as described herein. […] 100 μL was pipetted into each well and the plate was covered with an adhesive plate cover. […]

B1: 1B7 anti-HER2 rabbit monoclonal antibody (antibody, V domains shown)
VH: QSVEESGGRLVTPGTPLTLTCTVSGIDLSDYAMGWVRQAPGKGLEYIGIISSSGNTHYARWARGRFTISKTSSTTVDLKMTSLTTEDTATYFCARNYPGYANYALWGQGTLVTVSS
VL: RIVMTQTPASVSAAVGGTVTIKCQASESISNWLSWYQQKPGQPPKLLIYRASTLASGVPSRFSGSGSGTEYTLTISDLECADAATYYCQQDYIYNDIDNAFGGGTEVVVKG
notes: Recombinant rabbit IgG (gamma 1 heavy, kappa 1 light) expressed in 293F cells; Used as the coated capture antibody; also called Capture Antibody (1B7; Yurogen)
Take B1: the binding result is on record as “binds”.
